This note sets out measurements from paper PMC11447106 (Clinical and Translational Medicine, 2024).

Residue numbers refer to the chain shown, from its start.

One test addresses T1, GST-OGT^WT (UniProt O15294-3 1-1036).
T1 construct: OGT, wild type; The printed Thr444 fits the 1036-residue isoform
T1 sequence (looked up): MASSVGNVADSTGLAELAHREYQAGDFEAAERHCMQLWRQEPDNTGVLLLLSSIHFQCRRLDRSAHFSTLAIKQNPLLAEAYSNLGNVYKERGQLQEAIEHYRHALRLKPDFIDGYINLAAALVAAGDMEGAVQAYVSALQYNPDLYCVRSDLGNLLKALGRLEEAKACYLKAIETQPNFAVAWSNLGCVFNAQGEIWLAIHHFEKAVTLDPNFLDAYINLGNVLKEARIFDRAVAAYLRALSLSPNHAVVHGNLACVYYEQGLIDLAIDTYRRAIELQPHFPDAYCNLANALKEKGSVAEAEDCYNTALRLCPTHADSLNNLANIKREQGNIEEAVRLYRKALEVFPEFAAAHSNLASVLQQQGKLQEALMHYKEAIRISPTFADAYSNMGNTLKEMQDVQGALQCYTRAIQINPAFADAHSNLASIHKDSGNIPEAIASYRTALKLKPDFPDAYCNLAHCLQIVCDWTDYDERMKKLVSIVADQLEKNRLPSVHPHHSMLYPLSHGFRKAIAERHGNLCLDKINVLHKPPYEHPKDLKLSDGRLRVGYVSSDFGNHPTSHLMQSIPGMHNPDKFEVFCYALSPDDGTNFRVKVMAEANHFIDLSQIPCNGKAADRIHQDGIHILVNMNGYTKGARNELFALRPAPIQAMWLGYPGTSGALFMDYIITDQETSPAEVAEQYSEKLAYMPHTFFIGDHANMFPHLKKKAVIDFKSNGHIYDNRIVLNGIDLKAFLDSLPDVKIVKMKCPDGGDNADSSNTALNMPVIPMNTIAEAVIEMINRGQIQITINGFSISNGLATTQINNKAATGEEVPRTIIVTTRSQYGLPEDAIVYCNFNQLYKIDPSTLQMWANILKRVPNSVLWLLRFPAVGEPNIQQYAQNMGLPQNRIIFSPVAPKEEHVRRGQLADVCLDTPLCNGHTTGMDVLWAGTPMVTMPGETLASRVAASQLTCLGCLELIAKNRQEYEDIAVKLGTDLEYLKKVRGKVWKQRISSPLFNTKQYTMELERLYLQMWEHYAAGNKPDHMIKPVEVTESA
The test is described as follows: pull-down; in vitro GST pull-down; GST-OGT^WT or GST-OGT^T444E with His-NRF2. Conditions: both partners purified.

The next test deals with T2, GST-OGT^T444E (UniProt O15294-3 1-1036, T444E).
T2 construct: OGT with T444E (mimics phosphorylation at Thr444); The printed Thr444 fits the 1036-residue isoform
T2 sequence (looked up): T1 sequence (looked up) with T444E
The description is as above. Conditions: both partners purified.

B1: His-NRF2 (natural protein, UniProt Q16236 1-605, looked up)
chain: MMDLELPPPGLPSQQDMDLIDILWRQDIDLGVSREVFDFSQRRKEYELEKQKKLEKERQEQLQKEQEKAFFAQLQLDEETGEFLPIQPAQHIQSETSGSANYSQVAHIPKSDALYFDDCMQLLAQTFPFVDDNEVSSATFQSLVPDIPGHIESPVFIATNQAQSPETSVAQVAPVDLDGMQQDIEQVWEELLSIPELQCLNIENDKLVETTMVPSPEAKLTEVDNYHFYSSIPSMEKEVGNCSPHFLNAFEDSFSSILSTEDPNQLTVNSLNSDATVNTDFGDEFYSAFIAEPSISNSMPSPATLSHSLSELLNGPIDVSDLSLCKAFNQNHPESTAEFNDSDSGISLNTSPSVASPEHSVESSSYGDTLLGLSDSEVEELDSAPGSVKQNGPKTPVHSSGDMVQPLSPSQGQSTHVHDAQCENTPEKELPVSPGHRKTPFTKDKHSSRLEAHLTRDELRAKALHIPFPVEKIINLPVVDFNEMMSKEQFNEAQLALIRDIRRRGKNKVAAQNCRKRKLENIVELEQDLDHLKDEKEKLLKEKGENDKSLHLLKKQLSTLYLEVFSMLRDEDGKPYSPSEYSLQQTRDGNVFLVPKSKKPDVKKN
notes: NRF2; Construct details are said to be in the Supplementary Information
Turning to B1, the binding result with GST-OGT^WT and with GST-OGT^T444E was “binds” in each case.
